Paper PMC5951830, “CO2-sensitive tRNA modification associated with human mitochondrial disease” (Nature Communications, 2018)

Experiments:
purified protein [1] = substrate: O=C(O)O; assay: purified protein; details: YRDC alone, Tricine-NaOH pH 8.5, 10 mM MgCl2, ATP, L-Thr, 37 °C, bicarbonate 10-80 mM
purified protein [2] = substrate: Nc1ncnc2c1ncn2[C@@H]1O[C@H](COP(=O)(O)OP(=O)(O)OP(=O)(O)O)[C@@H](O)[C@H]1O; assay: purified protein; format: biochemical, Homo sapiens; details: YRDC alone, Tricine-NaOH pH 8.5, 10 mM MgCl2, [14C]L-Thr, NaHCO3, 37 °C, ATP 0.1-0.8 mM

B1: YRDC (Homo sapiens) (protein)
chain: SVGLSEGPAGSRSGRLFRPPSPAPAAPGARLLRLPGSGAVQAASPERAGWTEALRAAVAELRAGAVVAVPTDTLYGLACAASCSAALRAVYRLKGRSEAKPLAVCLGRVADVYRYCRVRVPEGLLKDLLPGPVTLVMERSEELNKDLNPFTPLVGIRIPDHAFMQDLAQMFEGPLALTSANLSSQASSLNVEEFQDLWPQLSLVIDGGQIGDGQSPECRLGSTVVDLSVPGKFGIIRPGCALESTTAILQQKYGLLPSHASYL
notes: recombinant from E. coli Rosetta(DE3), His6-SUMO tag removed
In the case of B1, the Km (purified protein [1]) is reported as 13 mM, the Km (purified protein [2]) is reported as 0.17 ± 0.22 mM and the kcat (purified protein [2]) is reported as “(3.9 ± 2.23) × 10^-2 s^-1”.
